# Patent US20230002466A1 (ELPIS BIOPHARMACEUTICALS, published 2023)
# Changes are numbered by the printed parent chain.
# T1: human IL2Rβ (human, UniProt P14784 27-239)
# T1 construct: also called IL2β; CD122
# T1 sequence (looked up): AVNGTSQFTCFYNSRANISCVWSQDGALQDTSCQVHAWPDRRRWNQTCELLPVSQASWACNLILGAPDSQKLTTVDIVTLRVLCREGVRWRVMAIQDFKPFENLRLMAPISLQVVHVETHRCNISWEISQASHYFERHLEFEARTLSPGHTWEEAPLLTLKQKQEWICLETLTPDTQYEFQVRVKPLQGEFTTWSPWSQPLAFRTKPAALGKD
# T2: human IL2Rα Fc fusion protein (human, UniProt P01589 22-213, limits assumed)
# T2 construct: also called Recombinant Fc-tagged human IL2Rα; not shown: Fc
# T2 sequence (looked up): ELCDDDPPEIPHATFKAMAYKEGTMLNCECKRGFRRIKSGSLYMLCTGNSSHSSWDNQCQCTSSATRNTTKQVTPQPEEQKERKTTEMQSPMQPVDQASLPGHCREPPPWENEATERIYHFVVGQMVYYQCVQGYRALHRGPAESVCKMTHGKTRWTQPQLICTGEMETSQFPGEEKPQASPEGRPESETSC
# T3: human IL2Rβ Fc fusion protein (human, UniProt P14784 27-239)
# T3 construct: also called Recombinant Fc-tagged human IL2Rβ; not shown: Fc
# T3 sequence (looked up): T1 sequence (looked up)
# B1: EP242 (ligand)
# chain: APTSSSTKKTQLQLEHLLLDLQMILNGINNYKNPKLTRMLTFKFYMPKKATELKHLQCLEEELKPLEEVLNLAQSKNFHLTARDAISNIRVIVQELKGSETTFMCEYADETATIVEFLNRWITFCQSIISTLT
# notes: EP001 back-mutation clone; not shown: His and Flag tags
# B2: EP247 (ligand)
# chain: B1 chain with T81R, S87D
# notes: not shown: His and Flag tags
# B3: EP263 (ligand)
# chain: B1 chain with S87D, Q94L
# notes: not shown: His and Flag tags
# B4: EP411 (ligand)
# chain: APTSSSTKKTQLQLEHLLLDLQMILNGINNYKNPKLTVMLTFKFSMPKKATELKHLQCLEEELKPLEEVLNLAQSKNFHLGVTDSISNAIVLARELKGSETTFMCEYADETATIVEFLNRWITFCQSIISTLT
# notes: not shown: His and Flag tags
# B5: EP410 (ligand)
# chain: B1 chain with R38V, Y45S, I86V, S87D, I89M, V93I
# notes: not shown: His and Flag tags
# B6: EP261 (ligand)
# chain: B1 chain with S87D, R90N
# notes: not shown: His and Flag tags
# B7: EP262 (ligand)
# chain: B1 chain with S87D, R90N, V93I, Q94L
# notes: not shown: His and Flag tags
# B8: EP255 (ligand)
# chain: B1 chain with A85L, S87D, R90N, V93I
# notes: not shown: His and Flag tags
# B9: EP256 (ligand)
# chain: B1 chain with A85L, S87D
# notes: not shown: His and Flag tags
# B10: EP254 (ligand)
# chain: B1 chain with A85L, V93I
# notes: not shown: His and Flag tags
# B11: EP251 (ligand)
# chain: B1 chain with A82P, S87D, R90N, V93I
# notes: not shown: His and Flag tags
# B12: EP352 (ligand)
# chain: B1 chain with F42A, A82P, S87D, V93I, Q94L
# notes: not shown: His and Flag tags
# B13: EP344 (ligand)
# chain: B1 chain with R38D, Y45S, A82P, S87D, V93I, Q94L
# notes: not shown: His and Flag tags
# B14: EP331 (ligand)
# chain: B1 chain with K35G, R38E, A82P, S87D
# notes: not shown: His and Flag tags
# B15: EP351 (ligand)
# chain: B1 chain with F42A, A82P, S87D
# notes: not shown: His and Flag tags
# B16: EP343 (ligand)
# chain: B1 chain with R38D, Y45S, A82P, S87D
# notes: not shown: His and Flag tags
# B17: EP336 (ligand)
# chain: B1 chain with K35S, F42G, A82P, S87D, V93I, Q94L
# notes: not shown: His and Flag tags
# B18: EP348 (ligand)
# chain: B1 chain with R38V, Y45S, A82P, S87D, V93I, Q94L
# notes: not shown: His and Flag tags
# B19: EP342 (ligand)
# chain: B1 chain with R38D, Y45S, R90N, V93I
# notes: not shown: His and Flag tags
# B20: EP335 (ligand)
# chain: B1 chain with K35S, F42G, A82P, S87D
# notes: not shown: His and Flag tags
# B21: EP334 (ligand)
# chain: B1 chain with K35S, F42G, R90N, V93I
# notes: not shown: His and Flag tags
# B22: EP332 (ligand)
# chain: B1 chain with K35G, R38E, A82P, S87D, V93I, Q94L
# notes: not shown: His and Flag tags
# B23: EP330 (ligand)
# chain: B1 chain with K35G, R38E, R90N, V93I
# notes: not shown: His and Flag tags
# Target: T1, human IL2Rβ
# Test: SPR, IL2Rβ captured on Protein A chip
# Protocol: The assay was run with Biacore T200 control software version 2.0. For each cycle, 1 ug/mL of human IL2Rβ was captured for 60 seconds at flow rate of 10 uL/min on flow cell 2 in 1×HBSP buffer on Protein A sensor chip. 100 nM of HIS and Flag tag purified each IL2 mutant was 2-fold serial diluted and injected onto both reference flow cell 1 and IL2Rβ captured flow cell 2 for 150 seconds at flow rate of 30 uL/min followed by washing for 300 seconds. The flow cells were then regenerated with Glycine pH2 for 60 seconds at a flow rate of 30 uL/min. The assay was set up with 8 serial diluted concentration points in 96-well format. The kinetics data was analyzed with Biacore T200 evaluation software 3.0. The specific binding response unit was derived from subtraction of binding to reference flow cell 1 from target flow cell 2 (FIGS. 16A-16F, Table 10).
Kd,koff,kon,Binder
7.16 nM,0.0241 s⁻¹,3.36e+06 M⁻¹ s⁻¹,B1
7.23 nM,0.0304 s⁻¹,4.2e+06 M⁻¹ s⁻¹,B2
2.79 nM,0.0191 s⁻¹,6.84e+06 M⁻¹ s⁻¹,B3

# Target: T1, human IL2Rβ
# Test: SPR, IL2Rβ captured on Protein A chip
# Remark: another data set of the same source
# Protocol: Kinetic analysis of the receptor binding activities of IL2Rβ agonist with IL2Rα reduced activity mutations have been assessed by SPR technology with Biacore T200. The assay was run with Biacore T200 control software version 2.0. For each cycle, 1 ug/mL of human IL2Rβ was captured for 60 seconds at flow rate of 10 ul/min on flow cell 2 in 1×HBSP buffer on Protein A sensor chip. 100 nM of HIS and Flag tag purified each IL2 mutant was 2 fold serial diluted and injected onto both reference flow cell 1 and IL2Rβ captured flow cell 2 for 150 seconds at flow rate of 30 ul/mins followed by wash for 300 seconds. The flow cells were then regenerated with Glycine pH2 for 60 seconds at flow rate of 30 ul/mins. The assay was set up with 8 serial diluted concentration points in 96 well format. The kinetics data was analyzed with Biacore T200 evaluation software 3.0. The specific binding response unit was derived from subtraction of binding to reference flow cell 1 from target flow cell 2.
Kd,koff,kon,Binder
0.461 nM,0.000839 s⁻¹,1.82e+06 M⁻¹ s⁻¹,B4
0.827 nM,0.00594 s⁻¹,7.19e+06 M⁻¹ s⁻¹,B5

# Target: T2, human IL2Rα Fc fusion protein
# Test: ELISA, receptor-Fc coated, anti-Flag HRP
# Protocol: (§1) Briefly, 384 well plate was immobilized with human IL2Rα and IL2Rβ Fc fusion proteins at a final concentration of 2 ug/mL in 1×PBS in total volume of 25 uL per well. The plate was incubated overnight at 4 C and blocked with 80 uL of superblock per well for 1 hour. […] Each dilution was added to IL2Rα or IL2Rβ wells in parallel in duplicates. The IL2 mutant binding was detected by adding 25 uL of anti-Flag HRP diluted at 1:5000 in 1×PBST. In between each step, the plate was washed three times with 1×PBST using a plate washer. The plate was then developed with 25 uL of TMB substrate for five minutes and stopped by adding 25 ul of 2N sulfuric acid. The plate was read at OD450 nm Biotek plate reader and the EC50 was analyzed with Prism 8.1 software to generate EC50 values (FIG. 15A for IL2Rα, and FIG. 15B for IL2Rβ, summarized in Table 9).
row,EC50,Binder
1,8.7 nM,B1
2,2.9 nM,B6
3,32.1 nM,B7
4,4.3 nM,B8
5,5.3 nM,B9
6,8.3 nM,B2
7,4.9 nM,B3
8,4.3 nM,B10
9,16.8 nM,B11

# Target: T3, human IL2Rβ Fc fusion protein
# Test: ELISA, receptor-Fc coated, anti-Flag HRP
# Protocol: as §1
row,EC50,Binder
1,5.7 nM,B1
2,124 nM,B6
3,53.2 nM,B7
4,360 nM,B8
5,362 nM,B9
6,4.7 nM,B2
7,1.3 nM,B3
8,556 nM,B10
9,2.5 nM,B11

# Target: T3, human IL2Rβ Fc fusion protein
# Test: ELISA, Fc-tagged receptor coated, anti-HisTag-HRP
# Protocol: (§2) Recombinant Fc-tagged human IL2Rα and IL2Rβ were added in 25 uL of 1×PBS to wells of 384-well plate and incubated overnight at 4° C. to coat the plates. Plates were washed three times with 0.05% Tween20/1×PBS. Plates were blocked with 100 uL of SuperBlock for 1 hr at RT and then washed 3 times with 0.05% Tween20/1×PBS. IL2 mutants were diluted in 0.05% Tween 20/1×PBS from 1000 nM to 0 nM and added to plates for 2 hrs at room temperature. Plates were then washed 6 times with 0.05% Tween20/1×PBS. Anti-HisTag-HRP was diluted 1:5000 in 0.05% Tween20/1×PBS and added to plates for 1 hr at RT. Plates were then washed 6 times with 0.05% Tween 20/1×PBS, and TMB was added to develop blue color. Reactions were stopped with 2N […] and light absorbance at 450 nm was read on a BioTek plate reader.
row,EC50,Binder
1,33.8 nM,B12
2,50.7 nM,B13
3,39.3 nM,B14
4,21.2 nM,B15
5,19.7 nM,B16
6,133 nM,B17
7,124 nM,B18
8,58.9 nM,B19
9,59.1 nM,B20
10,28.6 nM,B21
11,44 nM,B22

# Target: T2, human IL2Rα Fc fusion protein
# Test: ELISA, single point, Fc-tagged human IL2Rα coated, anti-His-HRP; concentration not printed (Example 14)
# Protocol: as §2
row,binding result,Binder
1,no binding (tested: not printed),B23
2,no binding (tested: not printed),B12
3,no binding (tested: not printed),B13
4,no binding (tested: not printed),B14
5,no binding (tested: not printed),B15
6,no binding (tested: not printed),B16
7,no binding (tested: not printed),B17
8,no binding (tested: not printed),B18
9,no binding (tested: not printed),B19
10,no binding (tested: not printed),B20
11,no binding (tested: not printed),B21
12,no binding (tested: not printed),B22
